From EP0866075B1, “Method to treat microbial infections by uncoupling of phosphotransferase system and appropriate agents therefor” (Arpida AG,, priority 1997, dated 1998)

Target: enzyme I (phosphoenolpyruvate-protein phosphotransferase, EC 2.7.3.9) of the E. coli phosphotransferase system (E. coli) (UniProt P08839)
Experiment: cell-based or functional assay

Which uncoupling P;Ipeptide/h does the source give for “HPr protein (phosphorylcarrier protein HPr) (from UniProt P0AA04 1-85)” here?
Its uncoupling P;Ipeptide/h is 2.7 Pi/peptide/h.
